{"source": "paper PMC11519604", "about": "“TOX2 nuclear-cytosol translocation is linked to leukemogenesis of acute T-cell leukemia by repressing TIM3 transcription” (Cell Death and Differentiation, 2024)", "proteins": {"B1": {"name": "TOX-Flag (full-length TOX) (natural protein, UniProt O94900 1-526, looked up)", "chain": "MDVRFYPPPAQPAAAPDAPCLGPSPCLDPYYCNKFDGENMYMSMTEPSQDYVPASQSYPGPSLESEDFNIPPITPPSLPDHSLVHLNEVESGYHSLCHPMNHNGLLPFHPQNMDLPEITVSNMLGQDGTLLSNSISVMPDIRNPEGTQYSSHPQMAAMRPRGQPADIRQQPGMMPHGQLTTINQSQLSAQLGLNMGGSNVPHNSPSPPGSKSATPSPSSSVHEDEGDDTSKINGGEKRPASDMGKKPKTPKKKKKKDPNEPQKPVSAYALFFRDTQAAIKGQNPNATFGEVSKIVASMWDGLGEEQKQVYKKKTEAAKKEYLKQLAAYRASLVSKSYSEPVDVKTSQPPQLINSKPSVFHGPSQAHSALYLSSHYHQQPGMNPHLTAMHPSLPRNIAPKPNNQMPVTVSIANMAVSPPPPLQISPPLHQHLNMQQHQPLTMQQPLGNQLPMQVQSALHSPTMQQGFTLQPDYQTIINPTSTAAQVVTQAMEYVRSGCRNPPPQPVDWNNDYCSSGGMQRDKALYLT", "notes": "TOX, full length (526 residues by the printed limits of TOX(C) 257-526), in pCDH vector; Both are written as this one molecule; source: HEK293T, transfected, in lysate; not shown: Flag, C-terminal, kept"}}, "target": "the molecule itself", "assay": "not stated; HEK293T cells with forced expression or knockdown of TOX and TOX2; bands told by apparent size (Supplementary Fig. 3B)"}
{"protein": "B1", "values": [{"measurement": "stoichiometry N", "value": 2}]}
